Source: the RNAGym collection of RNA variant scans (doi:10.7554/elife.90254)

B1: OR4K15 (parent)
chain: GUUAACGGUCAUAGGCCAUGGAAACUAGGAGCACCAUUUCGCUGCCAGUGAAGAAAUGAACAAAGAAAAUCUGGGCCAGGCAGGCAUCAAAAGAAAUAGUCUUGCGCUCAACCAGAAAGUCUGUAAUCAUUUUAAGGGUA

Variants of: B1
Experiment: self-cleavage, relative activity (ratio to wild type); higher = more cleavage; in vitro, sequencing; the parent is a self-cleaving ribozyme

Variant	self-cleavage
C81A A126G	0.17
A78U A116G	0.14
C76U U124A	0.02
U72C U87A	0.4
U72C U87C	0.22
A78G G84A	0.24
A78U U120G	0.37
A78U U120C	0.12
U72C A125G	0.07
U72C U122C	0.03
A78U U87G	0.09
G80C U103C	0.03
G75A A117G	0.07
C77U U133C	2.55
G73A U131C	0.08
G80U A91G	0.11
C76U U108C	0
A78G A95G	0.26
U72C A96G	0.05
A78C U100A	0.11
G79A A91C	0.09
A82G U102A	0.34
C81U U108A	0.02
C81U U108C	0.02

Variant	self-cleavage
U72C C112U	0.02
G75A U108A	0.01
A78G G123U	0.25
A78U U122C	0.14
A78U U122A	0.31
G79U U100C	0.03
G75C A116G	0.05
G73A A117U	0.17
G75A A114G	0.04
G75A A114U	0.02
A78U U131A	0.18
A82G A95G	1.23
G79U G104U	0.01
U72G U103C	0.07
C81U A82G	0.14
A78U U133C	0.37
A78G U102A	0.11
A78G C109A	0.05
C76A A110G	0.05
G74A U87C	0.19
U72G A94G	0.09
G75C A111G	0
A78U U102A	0.16
A78G U103A	0.08

Variant	self-cleavage
A78G U103G	0
A78G A117U	0.1
A78G A117C	0.22
G80A C81A	0.11
G80U G123A	0.14
A82G A118G	0.14
A82G A118U	0.44
A78C G79A	0.16
G74A G115U	0.03
A78G A86U	0.1
C76U U102C	0.1
A82G A117G	0.85
C76G U122C	0.15
G75A A90G	0.13
G80C U132A	0.1
A78G A126G	0.15
A78U G138A	0.36
G74A U131C	0.19
A78U U124C	0.26
A78U	0.36
A78C	0.18
A78G	0.22
G73U A86C	0.19
A78G U122C	0.19

Variant	self-cleavage
A78G U122G	0.15
U72C G84U	0.35
G73A C88U	0.17
G74A U120C	0.1
G75A U100C	0.12
C77U U108C	0.03
G75A U97C	0.15
G74A A116G	0.12
G74A U100C	0.45
G75A C109U	0.09
C77U A125G	1.37
A78U A140G	0.34
G74U A114G	0.03
U72C A116G	0.07
U72G A86G	0.1
C81A A135G	0.22
U72C U120A	0.13
U72C U120C	0.15
G79U A94G	0.43
C76G C121U	0.08
U72C A117U	0.15
A82C A118G	0.11
C81A A114U	0.03
C77A A114G	0.32

Variant	self-cleavage
U72C U103C	0.09
U72C U103G	0.01
U72C U103A	0.08
A78G A90U	0.31
A78G A90C	0.12
A78U A95G	0.84
A78U A95U	0.2
G75U U87C	0.11
G73C	0.23
G73A	0.07
G73U	0.05
G74A A82U	0.32
G75A C81U	0.21
G74U U120C	0.08
G75U A90U	0.12
A82G U100C	1.36
U72G A111U	0.04
G75U A135G	0.16
C77U U103C	2.12
U72C U131G	0.28
A78G A114U	0.01
U72G A118G	0.22
A78U A89G	0.27
G79A U108C	0.01

Variant	self-cleavage
G74U U132C	0.18
G74U U132A	0.3
C81U U127C	0.22
C81U C112U	0.01
A82C A125U	0
A82G A111G	0.04
A82G A111C	0.01
A82G A111U	0.09
G80C A96U	0.09
C81U A129U	0.16
G80C	0.07
G80A	0.24
G80U	0.1
A78U A118G	0.49
G74A U130C	0.11
A78G A110C	0.3
A78G A110G	0.11
A82G A125G	0.23
G73A A118U	0.04
A78G U97C	0.38
A78U A94U	0.4
A78U A94G	0.33
C76A A111G	0.02
C77U A90G	2.13

Variant	self-cleavage
G74A U139C	0.19
G74C A89G	0.07
C76A A94G	0.06
A78G U127A	0.31
A78U A86G	0.11
U72G U87C	0.31
A82G C109A	0.05
A78G A111G	0.03
A78C A110G	0.13
G74A A78G	0.21
A78C U102A	0.02
G80U U120C	0.08
A78U G115U	0.03
G74A C128U	0.13
G75C A140G	0.15
G80U U139A	0.09
U72C U127C	0.07
U72C C105U	0.03
G80A A129G	0.09
G79C U132C	0.06
G74U U97C	0.22
G79A A134G	0.09
G73A U122C	0.04
